The Kd is the equilibrium constant for the complex coming apart. Low values mean tighter binding, high ones weaker binding.

These results are taken from patent publication US20180142007A1 (published 2018).

Test [1] deals with T1, misdisordered truncated tau 151-391/4R (UniProt P10636 468-708). Briefly: SPR. A general note: Surface plasmon resonance follows binding to a sensor surface in real time, without labels.
Test [2] addresses T1, misdisordered truncated tau 151-391/4R. Briefly: SPR. This is another data set of the same source.

Like-named read-outs stand apart in the source and are kept apart here.

T1 sequence (P10636 468-708): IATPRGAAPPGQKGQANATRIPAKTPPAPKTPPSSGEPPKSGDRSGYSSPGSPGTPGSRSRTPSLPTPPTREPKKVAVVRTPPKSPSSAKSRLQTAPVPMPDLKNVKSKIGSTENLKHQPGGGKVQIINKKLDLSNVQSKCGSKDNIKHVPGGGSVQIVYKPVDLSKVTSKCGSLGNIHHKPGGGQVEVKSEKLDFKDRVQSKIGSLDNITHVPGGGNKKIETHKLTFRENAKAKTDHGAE

B1: AX016, humanized DC8E8 RHD/RKB (isotype not stated where tested) (antibody)
VH: QVQLVQSGAEVKKPGSSVKVSCKASGYTFSDYVISWVRQAPGQGLEWMGEIFPRSGSTYYNEKFKGRVTITADKSTSTAYMELSSLRSEDTAVYYCARDYYGTSFAMDYWGQGTLVTVSS
light: DIVMSQSPLSLPVTPGEPASISCKSSQSLLNSRTRKNYLAWYLQKPGQSPQLLIYWASTRESGVPDRFTGSGSGTDFTLKISRVEAEDVGVYYCKQSFYLRTFGQGTKVEIKRTVAAPSVFIFPPSDEQLKSGTASVVCLLNNFYPREAKVQWKVDNALQSGNSQESVTEQDSKDSTYSLSSTLTLSKADYEKHKVYACEVTHQGLSSPVTKSFNRGEC
For the molecule B1, the Kd in test [1] and in test [2] was 9.39 nM throughout.
